From US20170022258A1, “PEPTIDES FOR USE IN THE TREATMENT OF IL-1 RELATED DISEASES AND CONDITIONS” (C4M PHARMACEUTICALS PTY LTD., priority 2011, published 2017)
One block for each molecule: values may come before it. Non-standard residues stand in square brackets, D forms with d. No end group written: not given here.

What was measured:
[1] = background statement; cited from earlier work
[2] = system: IL-1α+IFN-γ induced IL-17 production by HT-29 cells; assay: IL-1α+IFN-γ induced IL-17 production by HT-29 cells; assay type: cell-based, human; details: IL-1ra control
Method: (§1) Human colon epithelial cell lines HT-29 and Caco2 obtained from the European Collection of Animal Cell Cultures (ECACC) were used in cell cultures. Cells were routinely cultured at 37° C. in an atmosphere of 5% CO2 in 80 cm^2 tissue culture flasks in McCoy's and DMEM medium, respectively, supplemented with penicillin (10 u/ml), streptomycin (10 μg/ml), fungizone (0.5 μg/ml), and 10% (v/v) FCS (referred to as complete medium) until confluent.
(§2) Confluent monolayers were sub-cultured into 6-well plates for experimental protocols. Cells were grown in 6-well plates until confluent. Twenty-four hours prior to the experiment the confluent monolayers were washed and cultured in FCS-free McCoy's medium. Growth arrested cultures were then treated with fresh FCS-free medium and stimulated with vehicle controls or various doses of IL-1α added alone or in combination with other pro-inflammatory cytokines (TNF-α, IFN-γ) in the presence or absence of the peptide of sequence 4 or IL-1 ra, in a dose and time dependent manner.
(§3) Supernatants were collected, centrifuged to remove cellular debris and stored at −70° C. until assayed for extracellular inflammatory mediators. […] Production of soluble mediators was assessed by commercially available ELISA in supernatants, RT-PCR in total RNA extractants and nitric oxide, as described in Kolios, G, et al. (1995). […]

[3] = system: IL-1α-induced IL-8 production by Caco2 cells; assay: IL-1α induced IL-8 production by Caco2 colonic adenocarcinoma cells; assay type: cell-based, human; details: IL-1ra 100 ng/ml, IL-1α alone 476.93±78.9, n=3
Method: as §1, §2, §3

[4] = system: IL-1 stimulation of IL-8 in human skin fibroblasts; assay: Inhibition of IL-1 induced IL-8 in human fibroblasts; assay type: cell-based; details: n=3; maximal activation with IL-1 only 2530±13 pg/ml
Method: Inhibition of IL-1 induced IL-8 in human fibroblasts was determined using normal human dermal fibroblast cells cultured in DMEM with 10% fetal calf serum in 48-well plates.
Twenty-four hours before initiation of the experiment, the medium was changed to DMEM with 0.2% fetal calf serum. Each peptide was added to confluent cells, which were then pulsed for 30 min with rIL-I,B (which was obtained from R & D Systems) at 50 pg/ml. The cells were washed four times with PBS, and fresh DMEM/0.2% fetal calf serum was added to each well. After 5 hr of incubation, the culture media were collected and analyzed by ELISA for IL-8 (which was obtained from R & D Systems). Maximal activation, with IL-1 only, was 2530±13 pg/ml of IL-8. Nonspecific activation, determined in the presence of 1000-fold excess IL-1Ra, was 30±9 pg/ml of IL-8 (n=3).

[5] = system: IL-1α+IFN-γ induced IL-8 production by HT-29 cells; assay: IL-1α+IFN-γ induced IL-8 production by HT-29 cells; assay type: cell-based, human; details: IL-1ra control
Method: as §1, §2
(§4) Supernatants were collected, centrifuged to remove cellular debris and stored at −70° C. until assayed for extracellular inflammatory mediators. Total RNA for RT-PCR was extracted as described above. Cell counting and viability was routinely checked at the beginning and the end of the experiment by phase microscopy and by trypan blue exclusion using representative wells. Mycoplasma tests were performed during the experimental protocol. Production of soluble mediators was assessed by commercially available ELISA in supernatants, RT-PCR in total RNA extractants and nitric oxide, as described in Kolios, G, et al. (1995). Br J Pharmacol, 116, 2866-2872, the contents of which are incorporated herein by reference.
Stimulation of HT-29 cells with a combination of pro-inflammatory cytokines induces increased secretion of chemokines, including IL-8 (as described in Kolios, G, et al. (1999). Eur J Immunol, 29, 530-536 the contents of which are herein incorporated by reference). […]

[6] = system: IL-1α-induced IL-8 production by HT-29 cells; assay: IL-1α induced IL-8 production by HT-29 colonic epithelial cells; assay type: cell-based, human; details: IL-1ra 500 control
Method: as §1, §2, §4
HT 29 and Caco2 colonic epithelial cell lines were stimulated with 10 ng/ml of IL-la in the presence of 100 or 500 ng/ml of the peptide of sequence 4.

[7] = molecular target: T1, IL-1 receptor (IL-1R) expressed on human monocytes (human), P14778; assay: radioligand competition, 40 pM 125I-IL-1α on confluent human monocytes
T1 chain: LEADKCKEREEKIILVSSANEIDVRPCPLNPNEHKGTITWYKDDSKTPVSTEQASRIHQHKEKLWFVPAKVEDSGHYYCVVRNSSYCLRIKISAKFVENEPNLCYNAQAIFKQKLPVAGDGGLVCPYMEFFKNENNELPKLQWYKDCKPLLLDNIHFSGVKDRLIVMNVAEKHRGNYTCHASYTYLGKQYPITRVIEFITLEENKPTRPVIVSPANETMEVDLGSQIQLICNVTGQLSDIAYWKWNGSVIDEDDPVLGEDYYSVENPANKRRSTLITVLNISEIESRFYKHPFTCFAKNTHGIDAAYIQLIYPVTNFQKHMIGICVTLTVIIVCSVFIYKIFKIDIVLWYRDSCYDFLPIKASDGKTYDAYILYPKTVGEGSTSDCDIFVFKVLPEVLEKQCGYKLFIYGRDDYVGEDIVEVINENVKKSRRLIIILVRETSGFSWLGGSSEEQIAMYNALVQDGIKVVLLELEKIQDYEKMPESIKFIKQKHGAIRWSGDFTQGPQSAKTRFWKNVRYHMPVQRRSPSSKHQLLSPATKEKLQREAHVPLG

[8] = molecular target: T1, IL-1 receptor (IL-1R) expressed on …; assay: cell-based or functional assay
[9] = molecular target: IL-1 receptor (IL-1R) expressed on human monocytes (human) (UniProt P14778); assay: cell-based or functional assay
[10] = molecular target: IL-1 receptor (IL-1R) expressed on human monocytes (human) (UniProt P14778); assay: radioligand competition, 40 pM 125I-IL-1α on confluent human monocytes

Molecule: recombinant IL-1Ra: recombinant full length IL-1Ra approved for methotrexate resistant rheumatoid arthritis (Amgen: Kineret-Anakinra)
half-life [1]: approximately six

Molecule: IL-1ra: IL-1R antagonist, member of the IL-1 cytokine family; competitively inhibits the activities of IL-1 [reference compound]
IL-17 production without cytokine stimulation [2]: did not produce significant amounts of IL-17
IL-1α-induced IL-8 secretion [3]: 923.95±63.69 pg/ml per 106 cells
IL-8, nonspecific activation in the presence of 1000-fold excess IL-1Ra [4]: 30 ± 9 pg/mL
IL-8 production in the absence of IL-1α [5]: did not result in production of IL-8
IL-8 production in the absence of IL-1α [6]: did not result in production of IL-8

IC50 [7]: 6.9 nM
IC50, in vitro inhibition of IL-1 stimulation of IL-8 in human skin fibroblasts (rIL-1β 50 pg/ml, IL-8 ELISA) [8]: 5.9 nM
B1: peptide of SEQ ID NO: 4 (Ac-DLeu-DPro-DLeu-DAla-DTyr-DPro-DGln-DTrp-DTyr-DGly-DPro-DThr-DTrp-DGlu-DPhe) (peptide)
chain: Ac-[dL][dP][dL][dA][dY][dP][dQ][dW][dY]G[dP][dT][dW][dE][dF]

IC50, in vitro inhibition of IL-1 stimulation of IL-8 in human skin fibroblasts (rIL-1β 50 pg/ml, IL-8 ELISA) [9]: 810 nM
IC50 [10]: 190 nM
B2: peptide of SEQ ID NO: 18 (Ac-…, D-amino acids) (peptide)
peptide: Ac-[dL][dP][dL][dA][dY][dP][dQ][dW][dY]G[dP][dT][dW][dE][dF][dS][dS][dV][dN][dA][dT]
modifications: not fully specified (residue 10); printed as Ac-LPLAYPQWYGPTWEFSSVNAT

IC50, in vitro inhibition of IL-1 stimulation of IL-8 in human skin fibroblasts (rIL-1β 50 pg/ml, IL-8 ELISA) [9]: 120 nM
IC50 [10]: 22 nM
B3: peptide of SEQ ID NO: 16 (Ac-…, D-amino acids) (peptide)
peptide: Ac-[dL][dP][dL][dA][dY][dP][dQ][dW][dY][dY][dA][dN][dS][dE][dE][dW][dT][dF]
